From patent US20110256088A1 (MIT, published 2011) come the findings set out here.

Bridge positions count the residues as written; N and C are the ends. Ends that are not written are not given here. * marks the point of attachment. Myristoyl = CCCCCCCCCCCCCC(=O)*

The target of test [1] is T1, p32 or gC1q receptor (human, UniProt Q07021 74-282).
T1 construct: whole, on cells; Endogenous protein on cell lines; also called p32 receptor; cell surface p32
T1 sequence (looked up): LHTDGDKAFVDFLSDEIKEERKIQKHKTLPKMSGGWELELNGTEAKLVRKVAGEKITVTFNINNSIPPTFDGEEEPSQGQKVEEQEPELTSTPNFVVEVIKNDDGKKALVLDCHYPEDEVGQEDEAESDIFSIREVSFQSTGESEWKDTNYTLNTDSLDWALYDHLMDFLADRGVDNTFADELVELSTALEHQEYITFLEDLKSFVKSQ
The test can be described thus: TAMRA-labeled tandem peptide incubated on MDA-MB-435 cells with p32 shRNA or control shRNA.

Test [2] addresses T1, p32 or gC1q receptor. The test can be described thus: free LyP-1 (5 to 20 µM) as competitor on HeLa cells, read out as GFP silencing.
Description: For the initial screen, HeLa cells stably expressing destabilized GFP were cultured in 96-well plates to ˜70-80% confluence. siRNA (0-100 nM) was incubated with 20-fold molar excess of tetramethylrhodamine-labelled tandem peptides in PBS for 10-15 min at room temperature, then incubated over cells in DMEM for 4 h at 37° C., after which the medium was replaced. The complexes were then added to HeLa cell cultures and incubated for 4 h at 37° C., after which the medium was replaced with 100 μL of fresh medium with 10% serum.

B1: TP-ARAL tandem peptide (peptide)
peptide: Myristoyl-GWTLNSAGYLLGKINLKALAALAKKILGGGGARALPSQRSR
modifications: also: TAMRA label, place not given here
notes: also called untargeted tandem peptide; control peptide (TP-ARAL)
In the case of B1, in the test with p32 or gC1q receptor [1], the binding result was “no binding”.

B2: free LyP-1 peptide (peptide)
peptide: CGNKRTRGC
modifications: disulfide 1-9 (inferred)
notes: also called unlabeled LyP-1 peptide
On to B2, for which the binding result with p32 or gC1q receptor [2] is listed as “binds”.
